Experimental data as given in the DeepSol protein solubility set.

assay: soluble on expression in E. coli; label from the status in PepcDB or PDB records

Q: For “MGQEVSLLAVKTEPLNSSETTATTGDGALDTFTGSVITSSGYSPRSAHQYSPQLYPSKPYPHILSTPAAQTMSAYAGQTQYSGMQQPAVYTAYSQTGQPYSLPTYDLGVMLPAIKTESGLSQTQSPLQSGCLSYSPGFSTPQPGQTPYSYQMPGSSFAPSSTIYANNSVSNSTNFSGSQQDYPSYTAFGQNQYAQYYSASTYGAYMTSNNTADGTPSSTSTYQLQESLPGLTNQPGEFDTMQSPSTPIKDLDERTCRSSGSKSRGRGRKNNPSPPPDSDLERVFVWDLDETIIVFHSLLTGSYAQKYGKDPPMAVTLGLRMEEMIFNLADTHLFFNDLEECDQVHIDDVSSDDNGQDLSTYSFATDGFHAAASSANLCLPTGVRGGVDWMRKLAFRYRRVKELYNTYKNNVAGLLGPAKRDAWLQLRAEIEGLTDSWLTNALKSLSIISTRSNCINVLVTTTQLIPALAKVLLYSLGGAFPIENIYSATKIGKESCFERIMQRFGRKVVYVVIGDGVEEEQAAKKHNMPFWRISSHSDLLALHQALELEYL”, which “soluble on expression in E. coli” value is on record?
A: not soluble

Q: For “MLLPTPEDLKKRRNELGLTQSDLAKRAGVSQPLIARIESGDVDPRLSTVRKILDAFEEAEKERQILIRDLMHSPVLHVSPEDSVEEVVNLMHVHGFSQIPVLDRGIPVGSVSEDMIVRLMGESKKKPISQLKVSGIMGESFPTVSPGISISVVSHILEGNPAVLVVEKGTVVGVVTKHDVMKLLQGQ”, which “soluble on expression in E. coli” value is on record?
A: not soluble

Q: With “MPEILKVKPTRMELLKLKRRVKLAERGHKLLKEKQDALIMEFFTIYDEALSMRRELIKKIGEAFEALRLAQVEVGSVRLKEIAIGVNPNKEIEVRSRNIMGVRVPLIEVPELKRKPSERGYAFISTSSAVDVAAEKFEEVLELAIRLAEVEESLKRLGKEIEKTKRRVNALEYIIIPRMKNTIKFIEQHLDEMERENFFRLKRIKALLEARESMLEHHHHHH” as the sequence, how does the “soluble on expression in E. coli” value read?
A: not soluble

Q: For “MTDIKMIALGGVREYGKNFYLVEINDSMFILDAGLKYPENEQLGVDLVIPNLDYVIENKGKVQGIFLSHGHADAIGALPYLLAEVSAPVFGSELTIELAKLFVKSNNSTKKFNNFHVVDSDTEIEFKDGLVSFFRTTHSIPESMGIVIGTDKGNIIYTGDFKFDQAAREGYQTDLLRLAEIGKEGVLALLSDSVNATSNDQIASESEVGEEMDSVISDADGRVIVAAVASNLVRIQQVFDSATAHGRRVVLTGTDAENIVRTALRLEKLMITDERLLIKPKDMSKFEDHELIILEAGRMGEPINSLQKMAAGRHRYVQIKEGDLVYIVTTPSTAKEAMVARVENLIYKAGGSVKLITQNLRVSGHANGRDLQLLMNLLKPQYLFPVQGEYRDLAAHAKLAEEVGIFPENIHILKRGDIMVLNDEGFLHEGGVPASDVMIDGNAIGDVGNIVLRDRKVLSEDGIFIVAITVSKKEKRIISKAKVNTRGFVYVKKSHDILRESAELVNTTVGNYLKKDTFDWGELKGNVRDDLSKFLFEQTKRRPAILPVVMEVR”, which “soluble on expression in E. coli” value is on record?
A: not soluble

Q: For “MGAQVSTQKTGAHETGLRASGNSIIHYTNINYYKDAASNSANRQDFTQDPGKFTEPVKDIMVKSLPALN”, which “soluble on expression in E. coli” value is on record?
A: soluble

Q: With “SLNRESERDVIKVGIIGDFTGICSELERGKVAAYKLAADEINRMGGINEKKVELLFRDDRSLSELTREAVKELTEEERVDVLMGSTLSPSREIMQHYADQTKTLYLDTQQTEGGVSSHYTFCLSAMPEQQMTQMLAYLLQKYGRKCYVVAADYNYGILSAEWVKYLVHQLGGEIVGVEYLDDRITDFNPLIDRILQLEADILFSICVFPNHDAFYLQWHQRGLNHIPNASTMVAAEAYQNVRFAPPVLENMYVMASFIEELNTPAAQRFVKKFRAAYDHREVPYMSMDTETVYTAMYVYKRAVELAGTTDTEEVITALESGAVYVDGPGGRVTVRGEDHHTSRSLSCFRINNQHRAEELFCTNPIHSDYIESMIEQTMGVKGGIKAMGANAPSTQYNMLLNKFRWHPSEG” as the sequence, how does the “soluble on expression in E. coli” value read?
A: soluble

Q: For “MSDDKFDAIVVGAGVAGSVAALVMARAGLDVLVIERGDSAGCKNMTGGRLYAHTLEAIIPGFAVSAPVERKVTREKISFLTEESAVTLDFHRGQPDVPQHASYTVLRNRLDPWLMEQAEQAGAQFIPGVRVDALVREGNKVTGVQAGDDILEANVVILADGVNSMLGRSLGMVPASDPHHYAVGVKEVIGLTPEQINDRFNITGEEGAAWLFAGSPSDGLMAGGFLYTNKDSISLGLVCGLGDIAHAQKSVPQMLEDFKQHPAIRPLISGGKLLEYSAHMVPEGGLAMVPQLVNEGVMIVGDAAGFCLNLGFTVRGMDLAIASAQAAATTVIAAKERADFSANSLAQYKRELEQSCVMRDMQHFRKIPALMENPRLFSQYPRMVADIMNEMFTIDGKPNQPVRKMIMGHAKKIGLINLLKDGIKGATAL”, which “soluble on expression in E. coli” value is on record?
A: not soluble

Q: Which “soluble on expression in E. coli” value does the source give for “KHGPLHPIPNRPVLTRARASLPLVLYIDRFLGGVFSKRRIPKRTQFGPVEGPLVRGSELKDCYIHLKVSLDKGDRKERDLHEDLWFELSDETLCNWMMFVRPAQNHLEQNLVAYQYGHHVYYTTIKNVEPKQELKVWYAASYAEFVNQKIHD” here?
A: soluble

Q: For “MSLVEVYLNSSSMIPIDRYYEYDIYDLVIEAYKNFEGEYDVNSIDLIVVANAYSQKLNNASLIAPKIAEKIGKPNVPSIKVDNADASGGAALLTAYSLIKSNMVNSVLIVGVEKQSDYPSKYLYDAISTNLDDYMFYNGISSHSVAALLMRQYMKRYGVDRNYFANWAIKMHKNATENPFAYLRFQVDLNTVINSQIISDPVRLFDVGARADGAAILLLSNNKTESAVKINKILSAQARYDFSPSLPSVRMLRDKLELKFSERTGIDIHDSYSIMAALMLEEAGIFESGKSLHNLDSVNVNLGGGLKARGHVGGASAIYQLAEAHMQLIGSFKGKKASVDNYIVISSDDLGMVSYGINLSREGHHHHHH”, which “soluble on expression in E. coli” value is on record?
A: not soluble

Q: With “MGSDKIHHHHHHMWFKNLKIYRLSAPWALNGDQLEECLARFAYQGGNNLEMQSLGWISPRENGLLAHTLNGQILLTLRAEKKLLPTTVVNQVAKARAQEIEEQQGYKPGRKQMKEIKERVTDELLPKAFSIYRDTRVWIDTVNHWLVIDAAASAKADEVIGLLVKTIDPLPLDNLYVEQSPAAAMTGWLAADEAPANFSIDQDTELRASGESRAAIRYVKHSIDVDDVRRHIQSGKQCTRLAMTWADRVSFVLTESLDVKRVAPLDVLKENPDAATQNDDEKFDSDMTLMTGEVAKLLAELVDSLGGEKRV” as the sequence, how does the “soluble on expression in E. coli” value read?
A: not soluble

Q: For “MPRISKRQLILESAAAIINEKGADYLTLDAVAQRAGISKGGLFYHFKSKDELIKELVNYANNLYRDNVNQHIGNEKNKKGQWLNAFIEATRAHRTDNAPITSGMLAAQGTNRSLLSPLKTSYQEWQYQITHDGLDEVDATIIRLAVDGLWLSEIFGISAIDEEMREKVIERLKMQIEKN”, which “soluble on expression in E. coli” value is on record?
A: not soluble

Q: Which “soluble on expression in E. coli” value does the source give for “VTYEEEAVPAPVRGRLEVLSDLLYVASPDRAMVFTRTKAETEEIAQGLLRLGHPAQALHGDMSQGERERVMGAFRQGEVRVLVATDVAARGLDIPQVDLVVHYRMPDRAEAYQHRSGRTGRAGRGGRVVLLYGPRERRDVEALERAVGRRFKRVNPPTPEEVLEAKWRHLLARLARVPEKDYRLYQDFAGRLFAEGRVEVVAALLALLLGGAPAERSLLTGEEGWRTYKATGPRLSLPRLVALLKGQGLEVGKVAEAEGGFYVDLRPEARPEVAGLRLEPARRVEGLLEIPSRTRRPARA” here?
A: soluble

Q: For “MGSDKIHHHHHHMRTYRSFKMFTNSSQGVRKVRVGIAGLGTVGGSIYRILKERGNEIEKRIGEKFIISKVINRSPQKYELLGVPKEEIAFDFDDLILNSDVVVEAIGGTDVAVDLVRRALELGRIVVTPNKNLISEYGNEFSEYIKKRKLFFEASVGGGIPIISLLQDYLIFQKVTRIRGIMNGTTNYILTEMSKGRHFEEVLKEAQELGYAEADPTNDIEGYDVAYKVSVLAGVVTGRFPGINSVQFEGITRIDPEYLKEIVRSGKKLKLIGELDFSTNRYEVRLREVTPEDPFFNVDGVDNAIEVSTDLAGDFLLKGRGAGGYPTASAVIADLFRVAKYKVLGGAEKFSVVVMKFGGAAISDVEKLEKVAEKIIKRKKSGVKPVVVLSAMGDTTDHLIELAKTIDENPDPRELDLLLSTGEIQSVALMSIALRKRGYKAISFTGNQLKIITDKRYGSARIIDINTDIISRYLKQDFIPVVAGFQGITETGDITTLGRGGSDLTAIALAYSLGADLCELYKDVDGVYTADPRIVKDARVIKELSWEEMIELSRHGAQVLQARAAEFARKYGVKVLIKNAHKETRGTLIWEGTKVENPIVRAVTFEDGMAKVVLKDVPDKPGVAARIMRTLSQMGVNIDMIIQGMKSGEYNTVAFIVPESQLGKLDIDLLKTRSEAKEIIIEKGLAKVSIVGVNLTSTPEISATLFETLANEGINIDMISASSSRISVIIDGKYVEDAVKAIHSRFELDRE”, which “soluble on expression in E. coli” value is on record?
A: not soluble

Q: For “MTTPLKKIVIVGGGAGGLEMATQLGHKLGRKKKAKITLVDRNHSHLWKPLLHEVATGSLDEGVDALSYLAHARNHGFQFQLGSVIDIDREAKTITIAELRDEKGELLVPERKIAYDTLVMALGSTSNDFNTPGVKENCIFLDNPHQARRFHQEMLNLFLKYSANLGANGKVNIAIVGGGATGVELSAELHNAIKQLHSYGYKGLTNEALNVTLVEAGERILPALPPRISAAAHNELTKLGVRVLTQTMVTSADEGGLHTKDGEYIEADLMVWAAGIKAPDFLKDIGGLETNRINQLVVEPTLQTTRDPDIYAIGDCASCPRPEGGFVPPRAQAAHQMATCAMNNILAQMNGKPLKNYQYKDHGSLVSLSNFSTVGSLMGNLTRGSMMIEGRIARFVYISLYRMHQIALHGYFKTGLMMLVGSINRVIRPRLKLH”, which “soluble on expression in E. coli” value is on record?
A: not soluble

Q: Which “soluble on expression in E. coli” value does the source give for “MGSDKIHHHHHHMPYNATVLRIMIASPSDVAKERNIIRNIIYEWNTINSIDRKIVLDPVGWETHAHPDMSGRAQSIINKQILKDCDLLVAVFWTRLGTPTGKFISGTVEEIEEHLKSGKQAMIYFSRAPVYLESVDQDQYKALCDFRSLCQQKGLIETYESLEEFQHKFSRQISQKIIQNYSSLESTNNTLEVSFAPELPRLSDLGKDLLIEVASDSNGELICLPVMGGLMIETNNKQLADMGNARSEASWKSAISELIKYELMESLGGKGEVYRLTEKGYQVADHLGAP” here?
A: not soluble

Q: With “MSLNHSVRKCGYLRKQKHGHKRFFVLRGPGAGGDEATAGGGSAPQPPRLEYYESEKKWRSKAGAPKRVIALDCCLNINKRADAKHKYLIALYTKDEYFAVAAENEQEQEGWYRALTDLVSEGRAAAGDAPPAAAPAASCSASLPGALGGSAGAAGAEDSYGLVAPATAAYREVWQVNLKPKGLGQSKNLTGVYRLCLSARTIGFVKLNCEQPSVTLQLMNIRRCGHSDSFFFIEVGRSAVTGPGELWMQADDSVVAQNIHETILEAMKALKELFEFRPREGHHHHHH” as the sequence, how does the “soluble on expression in E. coli” value read?
A: soluble

Q: With “MGTGGITSNAHVVSPTWHHKHVPPMDDDSVLQRDIGELLSRWGGLQMAVKNQWGGHDSLKKSQELAHNLFHLISQSNGSIFFLLL” as the sequence, how does the “soluble on expression in E. coli” value read?
A: not soluble

Q: With “MEMKQKLLTDIELDVHELKLLMNTFSKEPTQTLSELLKRSILRMQERLEQLSEEISAVPVEASPSPVAEAESEAPIVEEQAPVIEEVECPVIEEKVVEENEATAPGEDEPVIVQEPQTVVEEAVIEEPVVEDEMEEKEAEDESEDDESLLIEEPKTAVLGESIKMAAGLRHSISLNDSFRFSREIFGGDPELMNRVIEQISVMSSYKTAVAFLASKVSVNEENEAMIDFLELLKKYFNQSA” as the sequence, how does the “soluble on expression in E. coli” value read?
A: soluble

Q: Which “soluble on expression in E. coli” value does the source give for “MGSDKIHHHHHHMDAPALPARWKVSAPELIAETFSSRIWKVVRDDGSPAVVKALKPFDDVADELRGEHFLAWRRGEGAVRLLGRDGHSMLLEYAGETLLTQVLDEQGDNAATAIAAELMTKLFSPSQHPYPPELQPLTERYTSLFRKAATDRGAGHASIYVEAAAIAERLLDNPHDIRPLHGDLHHDNILHGPRGWLVIDPKGVLGNPGFDAANMFYNPLDRDDLCLDPERIAHMAEVFAKTLGESPAAILDHAIAYGCLSAAWHHEDDNAVEENRELSIAKAIRAMRANF” here?
A: not soluble

Q: For “MELFTEAWAQAYCRKLNESEAYRKAASTWEGSLALAVRPDPKAGFPKGVAVVLDLWHGACRGAKAVEGEAEADFVIEADLATWQEVLEGRLEPLSALMRGLLELKKGTIAALAPYAQAAQELVKVAREVA”, which “soluble on expression in E. coli” value is on record?
A: soluble
